Substitutions are numbered along the chain they refer to.
B1: Variant 16: cell penetrating anti-DNA humanized di-scFv, SEQ ID NO: 44 (protein)
scFv: DIQMTQSPSSLSASVGDRVTITCRASKTVSTSSYSYMHWYQQKPGKAPKLLIKYASYLESGVPSRFSGSGSGTDFTLTISSLQPEDFATYYCQHSREFPWTFGQGTKVEIKRADAAPGGGGSGGGGSGGGGSEVQLVESGGGLVQPGGSLRLSCAASGFTFSNYGMHWVRQAPGKGLEWVSYISSGSSTIYYADSVKGRFTISRDNAKNSLYLQMNSLRAEDTAVYYCARRGLLLDYWGQGTTVTVSSASTKGPSVFPLAPLESSGSDIQMTQSPSSLSASVGDRVTITCRASKTVSTSSYSYMHWYQQKPGKAPKLLIKYASYLESGVPSRFSGSGSGTDFTLTISSLQPEDFATYYCQHSREFPWTFGQGTKVEIKRADAAPGGGGSGGGGSGGGGSEVQLVESGGGLVQPGGSLRLSCAASGFTFSNYGMHWVRQAPGKGLEWVSYISSGSSTIYYADSVKGRFTISRDNAKNSLYLQMNSLRAEDTAVYYCARRGLLLDYWGQGTTVTVSS
modifications: Variant 16
B2: Variant 14: cell penetrating anti-DNA humanized di-scFv, SEQ ID NO: 42 (protein)
scFv: DIQMTQSPSSLSASLGDRATITCRASKTVSTSSYSYMHWYQQKPGQPPKLLIKYASYLESGVPSRFSGSGSGTDFTLTISSLQPEDAATYYCQHSREFPWTFGGGTKVEIKRADAAPGGGGSGGGGSGGGGSEVQLVESGGGVVQPGGSLRLSCAASGFTFSNYGMHWVRQAPEKGLEWVSYISSGSSTIYYADSVKGRFTISRDNSKNTLYLQMNSLRAEDTAVYYCARRGLLLDYWGQGTTVTVSSASTKGPSVFPLAPLESSGSDIQMTQSPSSLSASLGDRATITCRASKTVSTSSYSYMHWYQQKPGQPPKLLIKYASYLESGVPSRFSGSGSGTDFTLTISSLQPEDAATYYCQHSREFPWTFGGGTKVEIKRADAAPGGGGSGGGGSGGGGSEVQLVESGGGVVQPGGSLRLSCAASGFTFSNYGMHWVRQAPEKGLEWVSYISSGSSTIYYADSVKGRFTISRDNSKNTLYLQMNSLRAEDTAVYYCARRGLLLDYWGQGTTVTVSS
modifications: Variant 14
B3: Variant 15: cell penetrating anti-DNA humanized di-scFv, SEQ ID NO: 43 (protein)
scFv: B2 scFv with V143D, Q145K, V410D, Q412K
modifications: Variant 15
B4: Variant 12: cell penetrating anti-DNA humanized di-scFv, SEQ ID NO: 40 (protein)
scFv: DIQMTQSPSSLSASVGDRVTITCRASKSVSTSSYSYMHWYQQKPGKAPKLLIKYASYLESGVPSRFSGSGSGTDFTLTISSLQPEDFATYYCQHSREFPWTFGQGTKVEIKRADAAPGGGGSGGGGSGGGGSEVQLVESGGGDVKPGGSLRLSCAASGFTFSNYGMHWVRQAPEKGLEWVSYISSSSSTIYYADSVKGRFTISRDNSKNTLYLQMNSLRAEDTAVYYCARRGLLLDYWGQGTTVTVSSASTKGPSVFPLAPLESSGSDIQMTQSPSSLSASVGDRVTITCRASKSVSTSSYSYMHWYQQKPGKAPKLLIKYASYLESGVPSRFSGSGSGTDFTLTISSLQPEDFATYYCQHSREFPWTFGQGTKVEIKRADAAPGGGGSGGGGSGGGGSEVQLVESGGGDVKPGGSLRLSCAASGFTFSNYGMHWVRQAPEKGLEWVSYISSSSSTIYYADSVKGRFTISRDNSKNTLYLQMNSLRAEDTAVYYCARRGLLLDYWGQGTTVTVSS
modifications: Variant 12
B5: Variant 10: cell penetrating anti-DNA humanized di-scFv, SEQ ID NO: 38 (protein)
scFv: B1 scFv with T28S, G186S, T295S, G453S
modifications: Variant 10
B6: Variant 11: cell penetrating anti-DNA humanized di-scFv, SEQ ID NO: 39 (protein)
scFv: B4 scFv with D143V, K145Q, D410V, K412Q
modifications: Variant 11

What was measured:
Type in all cases: cell-based
[1] = tested on: HDR-proficient DLD1 cells; test: Cell death in HDR-proficient cells, di-scFv with PARP inhibitor; details: 5 nM olaparib, 10 μM di-scFv, or both
Procedure: Homology-directed repair (HDR) deficient BRCA2-DLD1 cells and PTEN-U251 cells were treated with control, 5 nM olaparib, 10 μM di-scFv, or 10 μM di-scFv+5 nM olaparib. Surviving fraction was determined by colony formation assay.
It was then determined whether the combination of di-scFv and olaparib is simply universally cytotoxic, regardless of DNA repair status. To evaluate this possibility, HDR-proficient DLD1 cells were treated with the above regimen to confirm selectivity of combination therapy to HDR-deficient malignant cells.

[2] = tested on: PTEN-deficient U87 human glioma cells; test: Cell viability by Trypan blue exclusion assay; details: 7 days after treatment; relative to control treated cells
Procedure: Cell viability of PTEN-deficient U87 human glioma cells was also assessed following treatment with control media or media containing Variants 10, 13, 15, or 16. Cell viability was determined 7 days after treatment using Trypan blue exclusion assay and by direct visualization of cell morphology by light microscopy.

[3] = tested on: PTEN-deficient U251 human glioma cells; test: Phospho-53BP1 foci accumulation (DNA damage); details: PTEN-deficient U251; twenty-four hours; vs control media
Procedure: A matched pair of PTEN-proficient and deficient U251 human glioma cells were treated with control media or media containing Variant 10, 11, 13, 15, or 16 for twenty-four hours. Cells were then washed, fixed, blocked, and then probed with an anti-phospho-53BP1 antibody overnight. Cells were then washed and incubated with an AlexaFluor555-conjugated secondary antibody. Finally, cells were washed, counterstained with DAPI, and visualized under a fluorescence microscope. Images were saved and evaluated by CellProfiler to determine mean number of phospho-53BP1 foci per cell.
A matched pair of BRCA2-proficient and deficient DLD1 colon cancer cells and PTEN-proficient and deficient U251 human glioma cells were treated with control media or media containing 10 μM di-scFv variant 13 (SEQ ID NO: 41), 5 nM olaparib, or combination treatment.

[4] = tested on: BRCA2-proficient DLD1 colon cancer cells; test: Cell viability by Trypan blue exclusion assay; details: 7 days later
Procedure: (§1) Next, a matched pair of BRCA2-proficient and deficient DLD1 colon cancer cells was treated with control media or media containing Variants 10, 13, 15, or 16. Cell viability was determined 7 days later by Trypan blue exclusion assay and by direct visualization of cell morphology by light microscopy. […] Representative light microscope images shown the changes in morphology in the BRCA2-deficient cancer cells treated with the variants are shown in FIG. 10, Panel A. Quantitative analysis of the cell survival by Trypan blue exclusion assay is shown in FIG. 10, Panel B.

[5] = tested on: BRCA2-deficient DLD1 colon cancer cells; test: Cell viability by Trypan blue exclusion assay; details: 7 days later
Procedure: as §1

DLD1 colon cancer cells = test: Alkaline phosphatase-based survey of nuclear penetration; details: cells treated for one hour; right shift of histogram peak
Procedure: DLD1 colon cancer cells were treated with control media or each of the indicated variants for one hour. Cells were then washed, fixed, blocked with 1% BSA-TBST, and then probed with protein L for one hour. Cells were then washed and incubated with an anti-protein L primary antibody for one hour. After another round of washing cells were incubated with an alkaline phosphatase-conjugated secondary antibody for one hour. Finally, cells were washed and signal was developed by addition of NBT/BCIP. Dark stain indicates location of the variants.
Raw integrated density values reflecting nuclear alkaline phosphatase staining in the DLD1 cells from the experiment in FIG. 3 were obtained by analysis using ImageJ Boxplots of distributions of values are presented for each variant in FIG. 4.
Histogram plots of cell counts versus nuclear staining intensity (represented as reciprocal intensity in arbitrary units) are shown in FIG. 5.

Molecule | cell death [1] | cell viability [2] | mean number of phospho-53BP1 foci per cell [3] | cell viability / toxicity [4] | cell viability / toxicity [5] | nuclear penetration relative to the yeast prototype (histogram of cell counts versus nuclear staining intensity) (DLD1 colon cancer cells)
O=C(c1cc(Cc2n[nH]c(=O)c3ccccc23)ccc1F)N1CCN(C(=O)C2CC2)CC1 [olaparib, reference compound] | remain resistant | – | – | – | – | –
B1 | – | reductions in cell viability | increased the number of foci | not toxic | killed by the variants | –
B2 | – | – | – | – | – | Most of the variants, other than variants 12 and 14, showed improved nuclear penetration
B3 | – | reductions in cell viability | increased the number of foci | not toxic | killed by the variants | notable right shift and narrowing of distributions
B4 | – | – | – | – | – | Most of the variants, other than variants 12 and 14, showed improved nuclear penetration
B5 | – | reductions in cell viability | increased the number of foci | not toxic | killed by the variants | –
B6 | – | – | increased the number of foci | – | – | –

From patent publication US12312417B2, “Binding proteins 1” (Nucleus Therapeutics Pty. Ltd., priority 2017, dated 2025)
